Measured values from patent publication US20070207967.

Target: T1, PPC peptide, soluble recombinant 18-mer ADGACGYGRFSPPCGAAG
T1 chain: ADGACGYGRFSPPCGAAG

B1: aminophenylmercuric acetate (APMA)-activated MMP-2 (protein)
chain: YNFFPRKPKWDKNQITYRIIGYTPDLDPETVDDAFARAFQVWSDVTPLRFSRIHDGEADIMINFGRWEHGDGYPFDGKDGLLAHAFAPGTGVGGDSHFDDDELWTLGEGQVVRVKYGNADGEYCKFPFLFNGKEYNSCTDTGRSDGFLWCSTTYNFEKDGKYGFCPHEALFTMGGNAEGQPCKFPFRFQGTSYDSCTTEGRTDGYRWCGTTEDYDRDKKYGFCPETAMSTVGGNSEGAPCVFPFTFLGNKYESCTSAGRSDGKMWCATTANYDDDRKWGFCPDQGYSLFLVAAHEFGHAMGLEHSQDPGALMAPIYTYTKNFRLSQDDIKGIQELYGASPDIDLGTGPTPTLGPVTPEICKQDIVFDGIAQIRGEIFFFKDRFIWRTVTPRDKPMGPLLVATFWPELPEKIDAVYEAPQEEKAVFFAGNEYWIYSASTLERGYPKPLTSLGLPPDVQRVDAAFNWSKNKKTYIFAGDKFWRYNEVKKKMDPGFPKLIADAWNAIPDNLDAVVDLQGGGHSYFFKGAYYLKLENQSLKSVKFGSIKSDWLGC
B1 was tested, and the “gelatin degradation assay (enzymatic activity, biotinylated gelatin substrate)” value was “PPC inhibited both MMP-9 and MMP-2 activity”.
